Experimental findings from the DeepSol protein solubility set are described below.

The nature of this data set: soluble on expression in E. coli; label from the status in PepcDB or PDB records.
For “MGSDKIHHHHHHMEYISLNRLGGAAGCPADAEAAARFRAALPEGCKGTFAVARRIAPVIIDFDLVMQEGAASVSLAKGLGLPVVPCIRRQVERARTDFPQRLQLELTNCCNNDCVMCPRHGGHFTRKPKHMDLDLVRRALDEIAQHYNYQLQLFHIGEPLLHPRIFEILDMLEDYPTLGRKWISSKGQELTPDIMRRVLTSKVDYFNYSLLAMTPATYARIVPNGDYATVRGNLERLADLKRDLGVQRPYLRAQMIEMDEALHEIDAFLDTWADRVDLLSVNRLETFSNRIDAKVTSAIKPRESIGPRACKRLERGDLYILSNGEVTVCDTDFNGELSLGNLNETTLAEMARGARYRQIIDSHERGDYSQIELCRHCEDWNL”, the “soluble on expression in E. coli” value is recorded as “not soluble”.

With “SLNSVTRLDGANRYEVAVNVSKQGWTSASTVIVANGKAYADVLSATPFAYRNNAPVLLTEASKLPTATKNRISQLKPSKVIVIGGTVSVQNGVVSEIKKLGVSSVERIGGANRYEVAANIANKLPSNSKAVIANGTAYADSLAIGAYAARNGIPILLTSSNSIPTATKNAMKSKGTTSTIVVGGEVSISSSVYKQLASPTRIGGSNRYEVAANVVKKYYSSAKNAIISNGYAYADGLTGSVLAAKQNRPMMFTNASSLPTPTREVIGSKNMTTFTVLGGTVSLQSNVVSQLKN”, the “soluble on expression in E. coli” value is reported as “not soluble”.

On to “RGKGKDIVMNPLSFGEFVKVARPDIYSKLPRIKRITKVKECSKLRPWREELYDLFILYLKSGGFPRAVKDILEGESIAELHEPTWNSIQKFYGPL”, for which the “soluble on expression in E. coli” value is listed as “not soluble”.

On to “ISRLLKNNLMDDVFNTENESFAQETRLIENEYSINLPTRFYYKKKWNDGWINVVNPFRASMVLGTPGSGKSYAIVNNYIKQQIEKGFAVYIYDYKFPDLSEIAYNHLISYLDGYKVKPKFYMINFDDPRKSHRCNPINPAFMTDISDAYEASYTIMLNLNRSWITKQGDFFVESPIILLASIIWFLKIYQGGKYCTFPHAIEFLNKKYADTFTILTSYPELENYLSPFMDAWESNAQDQLQGQLASAKIPLSRMISPALYWVMTGDDFSLDINNPEEPKILVVGNNPDRQNIYSCALGLYNSRIVKLINKKHQLKSSVIIDELPTIYFRGLDNLIATARSNKVAVCLGFQDFSQLRRDYGDKESKVIENTVGNIFSGQVVSETAKTLSDRFGKVLQKRQSMTINRNDKSTSISTQMDSLIPPSKISNLTQGMFVGAVSDNFDERIEQKIFHAEIMVDNEKVKRETASYKKLPQIIDFRDEDGNDRMQEEIQANYNRVKQEVQQIITDEIERIKNDPNLQNLLKHE”, for which the “soluble on expression in E. coli” value is “not soluble”.

“MSDEKKGGETEHINLKVLGQDNAVVQFKIKKHTPLRKLMNAYCDRAGLSMQVVRFRFDGQPINENDTPTSLEMEEGDTIEVYQQQTGG”: the “soluble on expression in E. coli” value was “soluble”.

Take “MAHHHHHHMLQPFQLLQSLVSPIVGVSAKVTVGNQAKDDFLLKTLAIDKKKLDPSYFEKYDNLKWEGKIIAIGDIHGDMESLKLILRHANLINENDEWIAENVLLVQVGDVLDRGIYGPLIYNYLFKLQKEAPLKKSKVLLIMGNHEQLNMCGYFNYVNQKEVEIFFKNNFNYRLFHFVSTAGEYFKKLIRLPVIAKVNDILFVHAGISKQISSLSLQTIRLKTRLQIENMCKILSYDKSRDYVNREGVLWYDHVSRTAPYDEKQACAILSHVFNKYGAKHLVVGHTKQMTHEISTYCNGGLFLIDTGMSLFMNNGQPYPNYLVAENGIFKSVHLNVEVNKKSKYCDSLEIELRSPNKQSFCIHAKETLLSPPNGG”: the “soluble on expression in E. coli” value was “not soluble”.

“MESNNGIILRVAEANSTDPGMSRVRLDESSRRLLDAEIGDVVEIEKVRKTVGRVYRARPEDENKGIVRIDSVMRNNCGASIGDKVKVRKVRTEIAKKVTLAPIIRKDQRLKFGEGIEEYVQRALIRRPMLEQDNISVPGLTLAGQTGLLFKVVKTLPSKVPVEIGEETKIEIREEPASEVLEEGG”: the “soluble on expression in E. coli” value is on record as “soluble”.

For “MPARRSAARIDFAGSPRPTLGVEWEFALVDSQTRDLSNEATAVIAEIGENPRVHKELLRNTVEIVSGICECTAEAMQDLRDTLGPARQIVRDRGMELFCAGTHPFARWSAQKLTDAPRYAELIKRTQWWGRQMLIWGVHVHVGIRSAHKVMPIMTSLLNYYPHLLALSASSPWWGGEDTGYASNRAMMFQQLPTAGLPFHFQRWAEFEGFVYDQKKTGIIDHMDEIRWDIRPSPHLGTLEVRICDGVSNLRELGALVALTHCLIVDLDRRLDAGETLPTMPPWHVQENKWRAARYGLDAVIILDADSNERLVTDDLADVLTRLEPVAKSLNCADELAAVSDIYRDGASYQRQLRVAQQHDGDLRAVVDALVAELVI”, the “soluble on expression in E. coli” value is recorded as “soluble”.

Turning to “MGSDKIHHHHHHMPTIVFVGAGSVRYTIKLVGDLAKTPDLYGSRLVLMDIDEERLKATYILVTKYLRELNAEYTVEQTTSLEEALEGADFVINTALYRAPGHEDGYVHYEIMREVGERHGYYRGIDSQELNMVSDYYTLSNYNHLKMSLDIAKAVEKIAPNAWILQTANPVFEITQLVKRLTKAKIVGFCHGYAHVFHLAKVLGVEPEELDWQVAGVNHAIWMNRFRCRGEDLYPKLDEWIEENASRWEPKNPWDVDFSPAAIDMYRFYGMYPIGDTVRSGTWKYHYDLETKKRWYGKFGGIDNEVERPKFYESLREQRKRLMELAKEVEKDPTIELTKVWPEVFTTGSESVEQHIPFINALVNDKKARLVLNVENRGVIKGIPDDVMVEVPVVVDKEGIHPEKIEPDLTDRIKKFYLLPRILRMEWALEAFISGDRRVLEEILVRDPRTRSYEQAVAVIDDILNLPFNEEMKKHYGS”, the “soluble on expression in E. coli” value is given as “not soluble”.

Regarding “EIVHLGLEDNDFDNDINPLETTGAYLSPKEFKEALLDKDTVVLDTRNDYEYDLGHFRGAIRPDIRNFRELPQWVRDNKEKFMDKRVVVYCTGGVRCEKFSGWMVREGYKDVGQLHGGIATYGKDPEVQGELWDGKMYVFDERIAVDVNHVNPTIVGKDWFDGTPCER”, the “soluble on expression in E. coli” value is recorded as “not soluble”.

In the case of “MGSDKIHHHHHHMKIRLTQLQCSSSSVTVDINDWVIEPQQSWGVFSTEGDVGALLGQLLTQQIDAQTLTYSGDIIGVTPASVALVSLLEQQSLLEAILEQDDSESLGYTDPKTTVFGVVFNQCHDNDLTHQLLQQLDLTHLSLSPFAQLSTGEGRRVMLARAVATQVPFLVLDEPYAGLDVAHRQTLTEYLQQLSQTKQILVVVSREEDMPDWIEHVAMFSHGKLDTMMTKSQWDNHPVIAQLTAQAGQQSDDILALIRRHRHKPLFANPVFQLNNGRVAYSDKVIFSGVNWRIDNGVHWQVKGPNGCGKSTLLGLIFGDHPQCYSNDIDIFGNKRGSGESIWEIKKHIGMVSSALHLQYRVNCSALDVIVSGFYDSIGLYQKPTAQQISVATEWLAILHMGHLSKTAFRQLEYGQQRLLLIARAIVKQPTLLILDEPYQGLDYLGRRLIKNALELIAKEHLSQLLYVSHYQEDSLDSIQHYIEFVKDENQDGYRAVVSQG”, the “soluble on expression in E. coli” value was “not soluble”.

“MRVLVTGGSGYIGSHTCVQLLQNGHDVIILDNLCNSKRSVLPVIERLGGKHPTFVEGDIRNEALMTEILHDHAIDTVIHFAGLKAVGESVQKPLEYYDNNVNGTLRLISAMRAANVKNFIFSSAATVYGDNPKIPYVESFPTGTPQSPYGKSKLMVEQILTDLQKAQPDWSIALLRYFNPVGAHPSGDMGEDPQGIPNNLMPYIAQVAVGRRDSLAIFGNDYPTEDGTGVRDYIHVMDLADGHVVAMEKLANKPGVHIYNLGAGVGNSVLDVVNAFSKACGKPVNYHFAPRREGDLPAYWADASKADRELNWRVTRTLDEMAQDTWHWQSRHPQGYPD”: the “soluble on expression in E. coli” value is given as “soluble”.

On to “GPGSMLEPIFEEITCLFASRNPKHALQGLSDGLRNAATGVGLGLAGVVAGTYGGAKEGGLGGMAKGFGAGMAGFVGLTGYGAYAGVRQIVRGVGNTRSAVSEVSKGEAYWDSNAQAWVRVNLACDFERLPQTDEDLLGTARKAYEKAKKDGTLPTTLNDSAEGGGASASSATTGAGAASVPQGTDTGETKPAAAEPVNYYAFLGVESAATPSEIRKAYTRKALEMHPDKNPNDPNATIKFQELNKIYNVLSHEGTRATYDRYGTVDPMNVPEMTGNPMKELLGAAFLEALVGPLHFFLVFEGGVLFTAEMKRELHARRRLRVAKNLVSWLDNGASGFESAQLALRDAVSTALGPVFVSYVAEEYHLASRQQLHGSNWKREMDSWYSSWATSASSLWHWTTMGARTARRAFVDKNLGEEDILRVLAVANERDVRQIVLQACRLVLFDMSVTPAQRQQRAMRLEELSVMAMKEVAREVASRERIGASEATAAAAEKGTTTKTPADTNATAPPFS”, for which the “soluble on expression in E. coli” value is reported as “soluble”.

Take “MGSDKIHHHHHHMQSPIPVLSMRKLYLGASDRQQFIADLGRAARDVGFFYLEDHGISLAEQVKVLDTAKSFFALSDAEKKQVQMIHSPHFRGYSANYSELTAGRPDRREQFDIMDELPALSASAIHHEWQKLIGPNQWPRQLPAIKSQLLSWQDKLTEVSLQLLAALCESLEQPADALAETISNGPYRHTKLIKYPGSPEASGQGVGAHKDPGYLTLVLQDENSGLEVEYEQQWYKVAPRPGAFVVNIGELLELASNGYLKATNHRVSSPKTGVTRYSSAFFMAAQLNASVPVLKLPSHLAKHAKGPTSDPGNPLLHNVGENVMKGRKRSHPDVSARFYASEEKCSSC”: the “soluble on expression in E. coli” value is “not soluble”.

Turning to “QVQLVQSGPELKKPGETVKISCKASGYMFTNYGMNWVKQAPGKALKWMGWINPYTGESTFADDFKGRFAFFLETSATTAYLQINNLKNEDTATYFCARGTTIVWAMDYWGQGTSVTVSSASTKGPSVFPLAPSSKSTSGGTAALGCLVKDYFPEPVTVSWNSGALTSGVHTFPAVLQSSGLYSLSSVVTVPSSSLGTQTYICNVNHKPSNTKVDKKVEPLSCDKTHT”, the “soluble on expression in E. coli” value is on record as “soluble”.

“MSQTPPPKDGKNPEAMEVEDAIDEEILKMSTEDLKSRTHLLDNEIRIMRSEVQRINHSATTLKERIKENTERIKVNKTLPYLVSNVVELLDLEDNTEEEGANVDLDAQKTKCAVIKTSTRATYFLPVVGLVDPDELKPGDLVGVNKDSYLILEKLPAEYDSRVKAMEVDERPTEQYSDIGGCDKQIQELIEAVVLPMTHKDRFVNLGIHPPKGVLMYGPPGTGKTMMARAVAAQTKSTFLKLAGPQLVQMFIGDGAKLVRDAFALAKEKAPAIIFIDELDAIGTKRFDSEKAGDREVQRTMLELLNQLDGFQPNDDIKVIAATNRIDVLDPALLRSGRLDRKIELPHPNEDARARIMQIHSRKMNVNKDVNFEELARCTDDFNGAQCKAVCVEAGMIALRRDATEILHEDFMDAILEVQAKKKASLNYYA”: the “soluble on expression in E. coli” value is given as “not soluble”.

For the sequence “MKNVVIHQIVTLIFTEDQLRAYWQKQESTVPFAALTDAQYMKLAEDMLAHSSHSQLEQHLLGGRWRTKEEAEGAVLAEDESRDDIHVEIIDTNAPAEPRRRMLIDRVREILCPHCSFTFYVREAASERRDWTCPACGSGFCDLTP”, the “soluble on expression in E. coli” value is “not soluble”.

Turning to “MGSDKIHHHHHHMNKQVNFDELEVGYDVPALPGMDEADIQTPCLVLDLDALERNIKKMGDYAREHGMRHRVHGKMHKSVDVAKLQEELGGACGVCCQKVSEAEVFARGGIKDVMVSNQVTDPQKIDRLARMPKFGARVLCCVDDPANVADLSAAAVKHGTQIEALVEIDCGAGRCGVTTTQEVVNIAKMIDAAEGLKFAGIQAYQGAMQHLDSYDERASKTQVAIDMVEDAIAGLKANGLECDIVGGGGTGSYYFESNSGAFNELQCGSYAFMDADYGRILDKDGKRIDDGEWENALFILTSVMSHAKADKAIVDAGLKAQSVDSGLATIYGRDDVEYVKCSDEHGVVMDPDGVLNVNDKLRLVPGHCDPTCNVHDWYVGVRGGKVETLWPVSARGKAY”, the “soluble on expression in E. coli” value was “not soluble”.
